Among the data in article PMC3260422 (Structure(London, England:1993), 2011) are Kd values, retold here.

In this assay the target is T1, human Colony Stimulating Factor-1 (hCSF-1), residues 1-149 (human).
T1 sequence (P09603 whole entry, looked up): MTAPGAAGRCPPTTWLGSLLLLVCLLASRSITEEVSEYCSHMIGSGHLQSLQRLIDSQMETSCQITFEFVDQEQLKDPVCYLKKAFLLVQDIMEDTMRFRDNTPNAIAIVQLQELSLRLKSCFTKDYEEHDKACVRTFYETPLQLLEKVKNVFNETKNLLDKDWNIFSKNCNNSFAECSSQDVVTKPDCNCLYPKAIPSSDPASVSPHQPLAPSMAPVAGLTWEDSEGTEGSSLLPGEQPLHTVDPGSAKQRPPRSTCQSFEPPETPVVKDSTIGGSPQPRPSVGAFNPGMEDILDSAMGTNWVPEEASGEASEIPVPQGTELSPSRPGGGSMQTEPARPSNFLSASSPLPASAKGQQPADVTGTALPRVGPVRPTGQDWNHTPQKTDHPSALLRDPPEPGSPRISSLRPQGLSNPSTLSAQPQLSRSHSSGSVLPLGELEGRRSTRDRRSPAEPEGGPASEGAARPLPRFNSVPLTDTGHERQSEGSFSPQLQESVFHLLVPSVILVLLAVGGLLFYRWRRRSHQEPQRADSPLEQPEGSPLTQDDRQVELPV
The assay can be described thus: ITC. On the technique in general: ITC needs no label: the signal is the heat of the interaction.

B1: human CSF-1 receptor, first three extracellular domains (hCSF-1R_(D1-D3)) (domain or fragment)
chain: IPVIEPSVPELVVKPGATVTLRCVGNGSVEWDGPPSPHWTLYSDGSSSILSTNNATFQNTGTYRCTEPGDPLGGSAAIHLYVKDPARPWNVLAQEVVVFEDQDALLPCLLTDPVLEAGVSLVRVRGRPLMRHTNYSFSPWHGFTIHRAKFIQSQDYQCSALMGGRKVMSISIRLKVQKVIPGPPALTLVPAELVRIRGEAAQIVCSASSVDVNFDVFLQHNNTKLAIPQQSDFHNNRYQKVLTLNLDQVDFQHAGNYSCVASNVQGKHSTSMFFRVVES
modifications: N-linked glycosylation (produced with kifunensine)
By Kd is commonly meant the free concentration of one partner at which half of the binding sites on the other are occupied at equilibrium, for simple one-to-one binding. Higher therefore signals lower affinity. Molecule B1 came in with a Kd of 0.213 µM.
